Source: patent publication US20230141962A1 (published 2023)

Legend:
Test in all cases: phage ELISA
HCoV-OC43 Spike Protein = target: T1, HCoV-OC43 Spike Protein (HCoV-OC43, UniProt P36334 14-1297)
T1 construct: also called OC43-HIS
T1 sequence: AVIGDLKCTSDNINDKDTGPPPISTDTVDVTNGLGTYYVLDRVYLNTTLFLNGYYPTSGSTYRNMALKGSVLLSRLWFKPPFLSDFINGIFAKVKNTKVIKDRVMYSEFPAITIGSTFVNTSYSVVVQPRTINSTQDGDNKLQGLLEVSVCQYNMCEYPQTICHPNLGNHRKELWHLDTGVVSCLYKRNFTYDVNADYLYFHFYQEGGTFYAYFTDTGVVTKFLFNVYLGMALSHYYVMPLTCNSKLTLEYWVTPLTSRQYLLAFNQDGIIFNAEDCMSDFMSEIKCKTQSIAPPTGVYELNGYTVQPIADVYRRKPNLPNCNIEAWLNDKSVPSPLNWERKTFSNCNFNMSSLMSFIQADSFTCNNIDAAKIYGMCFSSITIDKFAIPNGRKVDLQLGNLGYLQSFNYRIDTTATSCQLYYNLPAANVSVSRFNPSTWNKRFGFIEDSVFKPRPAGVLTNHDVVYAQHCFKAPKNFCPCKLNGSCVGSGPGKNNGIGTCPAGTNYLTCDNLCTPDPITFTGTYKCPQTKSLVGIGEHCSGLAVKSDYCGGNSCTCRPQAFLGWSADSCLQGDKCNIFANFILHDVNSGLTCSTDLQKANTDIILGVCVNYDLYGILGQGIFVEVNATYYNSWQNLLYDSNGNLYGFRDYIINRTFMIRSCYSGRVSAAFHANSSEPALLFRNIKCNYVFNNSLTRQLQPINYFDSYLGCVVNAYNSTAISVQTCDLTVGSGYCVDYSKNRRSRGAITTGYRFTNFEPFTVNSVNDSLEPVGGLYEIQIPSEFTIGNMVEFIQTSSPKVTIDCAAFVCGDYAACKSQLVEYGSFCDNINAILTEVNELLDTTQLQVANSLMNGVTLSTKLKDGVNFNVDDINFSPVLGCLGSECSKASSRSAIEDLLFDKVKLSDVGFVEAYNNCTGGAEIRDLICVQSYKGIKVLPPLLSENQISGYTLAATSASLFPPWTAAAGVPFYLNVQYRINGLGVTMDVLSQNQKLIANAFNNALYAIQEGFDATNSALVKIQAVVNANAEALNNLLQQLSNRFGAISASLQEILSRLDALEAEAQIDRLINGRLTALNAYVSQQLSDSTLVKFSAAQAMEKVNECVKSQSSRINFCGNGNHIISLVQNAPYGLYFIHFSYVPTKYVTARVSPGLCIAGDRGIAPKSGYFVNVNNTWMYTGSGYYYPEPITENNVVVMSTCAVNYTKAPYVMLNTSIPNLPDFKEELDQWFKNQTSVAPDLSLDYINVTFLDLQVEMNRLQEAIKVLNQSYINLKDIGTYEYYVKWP

[1] = target: T2, HCoV-HKU1 Spike/S1 Protein (HCoV-HKU1, UniProt Q0ZME7 13-756)
T2 construct: domain: Spike/S1; also called HKU1-HIS
T2 sequence: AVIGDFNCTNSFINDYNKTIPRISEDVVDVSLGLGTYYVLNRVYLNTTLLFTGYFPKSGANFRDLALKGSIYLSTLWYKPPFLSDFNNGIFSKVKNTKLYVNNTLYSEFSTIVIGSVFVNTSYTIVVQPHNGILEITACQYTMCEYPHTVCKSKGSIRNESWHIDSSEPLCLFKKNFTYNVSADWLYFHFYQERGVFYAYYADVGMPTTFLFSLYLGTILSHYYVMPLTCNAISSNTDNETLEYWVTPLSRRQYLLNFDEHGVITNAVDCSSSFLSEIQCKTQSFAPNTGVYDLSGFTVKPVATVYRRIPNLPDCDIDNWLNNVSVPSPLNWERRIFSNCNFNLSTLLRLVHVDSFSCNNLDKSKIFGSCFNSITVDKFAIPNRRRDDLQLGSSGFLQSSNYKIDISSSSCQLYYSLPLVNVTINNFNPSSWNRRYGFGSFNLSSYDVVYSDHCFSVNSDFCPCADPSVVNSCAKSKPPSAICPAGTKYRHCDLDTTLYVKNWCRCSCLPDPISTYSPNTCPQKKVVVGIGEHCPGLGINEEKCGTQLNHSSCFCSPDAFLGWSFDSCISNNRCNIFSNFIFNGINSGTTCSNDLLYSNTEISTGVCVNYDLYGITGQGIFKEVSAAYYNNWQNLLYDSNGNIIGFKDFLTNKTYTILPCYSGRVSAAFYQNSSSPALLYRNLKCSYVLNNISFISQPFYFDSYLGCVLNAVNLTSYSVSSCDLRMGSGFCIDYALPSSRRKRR

[2] = target: T3, HCoV-NL63 Spike/S1 Protein (HCoV-NL63, UniProt Q6Q1S2 19-717)
T3 construct: domain: Spike/S1; also called NL63-HIS
T3 sequence: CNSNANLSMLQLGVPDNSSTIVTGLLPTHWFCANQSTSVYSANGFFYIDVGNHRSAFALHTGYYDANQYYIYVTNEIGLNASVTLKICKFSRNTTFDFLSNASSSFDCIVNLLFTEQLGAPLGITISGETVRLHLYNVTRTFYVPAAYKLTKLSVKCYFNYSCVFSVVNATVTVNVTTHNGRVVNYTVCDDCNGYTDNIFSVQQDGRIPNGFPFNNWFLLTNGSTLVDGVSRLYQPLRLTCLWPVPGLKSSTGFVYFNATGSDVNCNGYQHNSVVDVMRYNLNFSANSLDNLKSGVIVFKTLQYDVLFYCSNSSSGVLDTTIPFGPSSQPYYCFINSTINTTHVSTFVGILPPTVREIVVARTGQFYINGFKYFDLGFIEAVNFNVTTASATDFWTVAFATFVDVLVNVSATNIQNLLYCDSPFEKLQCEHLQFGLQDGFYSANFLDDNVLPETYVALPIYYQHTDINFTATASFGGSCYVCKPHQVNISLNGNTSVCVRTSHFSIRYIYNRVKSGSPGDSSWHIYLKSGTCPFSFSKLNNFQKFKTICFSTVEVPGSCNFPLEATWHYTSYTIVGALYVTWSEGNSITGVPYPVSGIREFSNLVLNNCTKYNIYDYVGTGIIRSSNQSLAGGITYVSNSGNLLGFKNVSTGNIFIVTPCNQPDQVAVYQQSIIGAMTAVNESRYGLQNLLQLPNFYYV

[3] = target: T4, HCoV-229E Spike/S1 Protein (HCoV-229E, UniProt P15423 16-536)
T4 construct: domain: Spike/S1; also called 229E-HIS
T4 sequence: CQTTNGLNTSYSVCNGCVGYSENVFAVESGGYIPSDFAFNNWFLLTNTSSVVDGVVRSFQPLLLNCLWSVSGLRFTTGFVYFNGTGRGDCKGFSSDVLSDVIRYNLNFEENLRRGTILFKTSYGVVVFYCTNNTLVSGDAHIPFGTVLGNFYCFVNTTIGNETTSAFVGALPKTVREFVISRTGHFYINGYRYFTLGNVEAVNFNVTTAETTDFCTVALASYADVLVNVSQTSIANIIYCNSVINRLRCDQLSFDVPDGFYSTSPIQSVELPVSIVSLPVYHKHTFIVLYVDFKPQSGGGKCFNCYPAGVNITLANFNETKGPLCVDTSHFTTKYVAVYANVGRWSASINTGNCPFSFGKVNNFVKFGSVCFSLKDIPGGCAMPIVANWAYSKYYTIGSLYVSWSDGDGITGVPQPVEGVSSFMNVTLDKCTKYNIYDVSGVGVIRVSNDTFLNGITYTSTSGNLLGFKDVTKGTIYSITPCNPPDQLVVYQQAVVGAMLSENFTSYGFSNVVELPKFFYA

Measured: binding result

B1: phage clone #30 (scFv)
scFv: QSALTQPPSASGSPGQSVTISCTGTSSDVGGYDYVSWYQQHPGKAPKLMIYEVSKRPSGVSNRFSGSKSGNTASLTISGLQAEDEADYYCSSYTSSSTFPYVFGTGTKVTVLGSRGGGGSGGGGSGGGGSLEMAEVQLVESGGGLEQPGGSLRLSCAASGFTFSSYAMSWVRQAPGKGLEWVSAISASGNSTFYADSVKGRFTISRDNSKHTLDLQMNSLRADDTAVYYCARNSDVWGQGTLVTVSSTSGQAGQ
no binding: HCoV-OC43 Spike Protein | [1] | [2] | [3]

B2: phage clone #20 (scFv)
scFv: SYVLTQPPSASGTPGQRVTISCSGSSSNIGSNTVNWYQQLPGTAPKLLIYSNNQRPSGVPDRFSASKSGTSASLAISGFQSEDEADYYCAAWDDSLDGYVFGTGTKVTVLGSRGGGGSGGGGSGGGGSLEMAEVQLVQSGAEVKKPGESLKISCKGSGYSFPSYWIGWVRQMPGKGLEWMGIIYPGDSDTRYSPSFQGQVTISADKSISTAYLQWSSLKASDTAMYYCARGSYTYMGGSYDYWGQGTLVTVSSTSGQAGQ
no binding: HCoV-OC43 Spike Protein | [1] | [2] | [3]

B3: phage clone #19 (scFv)
scFv: QSALTQPASVSGSPGQSITISCTGTSSDVGGYNYVSWYQQHPGKVPKLMIYEVSNRPSGVSNRFSGSKSGNTASLTISGLQAEDEADYYCSSYTSGDTLVFGGGTKVTVLGSRGGGGSGGGGSGGGGSLEMAELQLVESGGGVVQPGRSPRLSCAASGFTFSNYPMHWVRQAPGKGLEWVAVISYDGNHKYYADSLEGRFSISRDNSKNTLYLQMNSLTAADTAVYYCARGGGMGGLDSWGQGTLVTVSSTSGQAGQ
no binding: HCoV-OC43 Spike Protein | [1] | [2] | [3]

B4: phage clone #13 (scFv)
scFv: QSVLTQPPSASGTPGQRVTISCSGSSSNIGSNYVYWYQQLPGTAPKLLIYRNNQRPSGVPDRFSGSKSGTSASLAISGLRSEDEADYYCAAWDDSLSGPNYVFGTGTKVTVLGSRGGGGSGGGGSGGGGSLEMAQVQLVQSGAEVKKPGSSVKVSCKASGGTFSSYAISWVRQAPGQGLEWMGWISGYNGNTNYAQKLQGRVTMTTDTSTSTAYMELRSLRSDDTAVYYCARTGWSKGEKVTTWGEWFYVDYWGQGTLVTVSSTSGQAGQ
no binding: HCoV-OC43 Spike Protein | [1] | [2] | [3]
